The assay deals with human TIGIT on HEK293A/human TIGIT cells (human) (UniProt Q495A1). Nature of the assay: cell-based or functional assay.
human TIGIT on HEK293A/human TIGIT cells (human), sequence (Q495A1 22-244 limits assumed): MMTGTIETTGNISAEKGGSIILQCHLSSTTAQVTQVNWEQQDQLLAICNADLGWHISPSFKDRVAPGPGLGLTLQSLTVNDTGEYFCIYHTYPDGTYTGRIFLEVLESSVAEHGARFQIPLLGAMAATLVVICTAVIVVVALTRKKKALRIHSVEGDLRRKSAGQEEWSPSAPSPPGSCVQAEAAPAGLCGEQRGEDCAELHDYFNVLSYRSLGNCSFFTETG

Tiragolumab (antibody) displayed an EC50, NK92 (NK92MI-CD16a) cell-mediated ADCC, LDH release of 0.511 nM and an EC50, PBMC-mediated ADCC, death rate of GFP+ cells by FACS of 0.311 nM.
